# In paper PMC8315802 (2021):
# Target: F-actin (skeletal muscle actin) (Oryctolagus cuniculus, UniProt P68135)
# Test: actin co-sedimentation
binder,measurement,value
Rng2 (curly) 1-189 (protein) MDVNVGLSRLQSQAGAPVGTKGSNTRLAAKQRETLQAYDYLCRVDEAKKWIEECLGTDLGPTSTFEQSLRNGVVLALLVQKFQPDKLIKIFYSNELQFRHSDNINKFLDFIHGIGLPEIFHFELTDIYEGKNLPKVIYCIHALSYFLSMQDLAPPLIKSDENLSFTDEDVSIIVRRLRQSNVILPNFKA,Kd,1000 nM
